Literature values as cited in PMC10641069, “Intra- and inter-molecular regulation by intrinsically-disordered regions governs PUF protein RNA binding” (Nature Communications, 2023).
Substitutions are numbered along the chain they refer to. In names and notes the source's numbering stands. Entries after “also recorded” stand apart in the source; their conditions may differ.

B1: full-length FBF-2: worms expressing full-length FBF-2 in an fbf-1 loss-of-function background (protein, UniProt Q09312 1-632, looked up)
chain: MDQSKMRRTNQFRKTSQKPPSTGIDSYPTPAQSPMAQHETPMWDFNSLNPYFSMLNMNDGINYARHQQNHIVTSRPPTPLTDLMSLRSFQSFPNVFMPVSRSRTSSFIQSDTDSSRLESDDFSQNVRCFSADIDRSKSYGSSKHYHLKYSRPALSRNSRSFTRSNNVLPTWSLDSNGEMRSRLSLSEVLDSGDLMKFAVDKTGCQFLEKAVKGSLTSYQKFQLFEQVIGRKDDFLKLSTNIFGNYLVQSVIGISLATNDDGYTKRQEKLKNFISSQMTDMCLDKFACRVIQSSLQNMDLSLACKLVQALPRDARLIAICVDQNANHVIQKVVAVIPLKNWEFIVDFVATPEHLRQICSDKYGCRVVQTIIEKLTADSMNVDLTSAAQNLRERALQRLMTSVTNRCQELATNEYANYIIQHIVSNDDLAVYRECIIEKCLMRNLLSLSQEKFASHVVEKAFLHAPLELLAEMMDEIFDGYIPHPDTGKDALDIMMFHQFGNYVVQCMLTICCDAVSGRRQTKEGGYDHAISFQDWLKKLHSRVTKERHRLSRFSSGKKMIETLANLRSTHPIYELQSSGHDSFKTDYFSTASEHDGPELEKNGIEEGSLMLEPRSNKSSVSVKFSSSGSHGDD
modifications: full-length
notes: worms expressing full-length FBF-2 in an fbf-1 loss-of-function background
B2: FBF-2 Y479A: FBF-2 Y479A expressed in animals (Kimble lab, unpublished) (protein, UniProt Q09312 1-632, looked up, variant Y479A)
Fem-3 mRNA-binding factor 2: B1 chain with Y479A
B3: FBF-2 L610A: FBF-2 L610A; attempts to generate animals were unsuccessful (protein, UniProt Q09312 1-632, looked up, variant L610A)
Fem-3 mRNA-binding factor 2: B1 chain with L610A
B4: truncated FBF-2: FBF-2 lacking the C-terminal 26 residues (607-632), expressed in worms (protein, UniProt Q09312 1-606, looked up, fragment)
chain: MDQSKMRRTNQFRKTSQKPPSTGIDSYPTPAQSPMAQHETPMWDFNSLNPYFSMLNMNDGINYARHQQNHIVTSRPPTPLTDLMSLRSFQSFPNVFMPVSRSRTSSFIQSDTDSSRLESDDFSQNVRCFSADIDRSKSYGSSKHYHLKYSRPALSRNSRSFTRSNNVLPTWSLDSNGEMRSRLSLSEVLDSGDLMKFAVDKTGCQFLEKAVKGSLTSYQKFQLFEQVIGRKDDFLKLSTNIFGNYLVQSVIGISLATNDDGYTKRQEKLKNFISSQMTDMCLDKFACRVIQSSLQNMDLSLACKLVQALPRDARLIAICVDQNANHVIQKVVAVIPLKNWEFIVDFVATPEHLRQICSDKYGCRVVQTIIEKLTADSMNVDLTSAAQNLRERALQRLMTSVTNRCQELATNEYANYIIQHIVSNDDLAVYRECIIEKCLMRNLLSLSQEKFASHVVEKAFLHAPLELLAEMMDEIFDGYIPHPDTGKDALDIMMFHQFGNYVVQCMLTICCDAVSGRRQTKEGGYDHAISFQDWLKKLHSRVTKERHRLSRFSSGKKMIETLANLRSTHPIYELQSSGHDSFKTDYFSTASEHDGPELEKNGIEEG

Experiments:
[1] = target: FBF-2 RBD (Caenorhabditis elegans) (UniProt Q09312); experiment: ITC; settings: cited from earlier work
[2] = tested on: C. elegans; settings: cited from earlier work; for sterile progeny: fbf-1 loss-of-function background, failure to initiate oogenesis, ref 41 (Wang, et al. 2016); for germline phenotype: animals expressing mutant FBF-2, unpublished, ref personal communication, Kimble lab
Source text: Our previous structural and biochemical studies relied on FBF-2^164–575, a fragment with the RBD that lacks its intrinsically disordered C-terminal tail but retains its in vivo RNA-binding specificity (Fig. 1a)[17],[18],[36],[39],[40]. […] A worm strain that expresses truncated FBF-2 lacking the C-terminal 26 residues (607-632) was generated in an fbf-1 loss-of-function background. Approximately 11% of the mutant progeny were sterile due to failure to initiate oogenesis, indicating a germline defect. In contrast, worms expressing full-l ... || In the PUF hub, FBF-1 and FBF-2 play a more prominent role than PUF-3 and PUF-11[55]. FBF-1 and FBF-2 amino acid sequences are 91% identical and have largely overlapping functions. […] When the CT of FBF-1 is replaced with the FBF-2 CT, the chimeric protein produces a progenitor region that m ... || page 6: Reviewer #2 (Remarks to the Author): This manuscript uses structural and biochemical approaches to understand how partner proteins and intrinsically disordered regions (IDRs) impact RNA binding of FBF-2. The crystal structure of FBF-2 CT is novel and the proposed role of the CT in autoinhibition by intramolecular interaction with RBD is interesting. However, why this autoinhibition would be needed in vivo is less clear, especially in regard to the interaction with partner proteins. While the authors also mention this shortcoming, some attempt to address the biological consequences of t ...

Molecule	Kd [1] [µM]	sterile progeny [2]	germline phenotype [2]	other results
LST-1 A LST-1 A (from UniProt P91820)	2.1			
LST-1 B LST-1 B (from UniProt P91820)	0.05			
B1		0%		germline progenitor region length ([2]; expressed as sole FBF protein, vs FBF-1): shorter germline progenitor regions than FBF-1
B2			no defects were detected in germline stem cell self-; also recorded: defect in the sperm-to-oocyte switch	
B3			dominant sterile	
B4		Approximately 11%		
